2 substances from patent US20120065254A1 can be followed below.

The target of this experiment is C5a receptor (CD88) on differentiated U937 cells (UniProt P21730). As to the kind of experiment: cell-based or functional assay.
Sequence of C5a receptor (CD88) on differentiated U937 cells (P21730 whole entry): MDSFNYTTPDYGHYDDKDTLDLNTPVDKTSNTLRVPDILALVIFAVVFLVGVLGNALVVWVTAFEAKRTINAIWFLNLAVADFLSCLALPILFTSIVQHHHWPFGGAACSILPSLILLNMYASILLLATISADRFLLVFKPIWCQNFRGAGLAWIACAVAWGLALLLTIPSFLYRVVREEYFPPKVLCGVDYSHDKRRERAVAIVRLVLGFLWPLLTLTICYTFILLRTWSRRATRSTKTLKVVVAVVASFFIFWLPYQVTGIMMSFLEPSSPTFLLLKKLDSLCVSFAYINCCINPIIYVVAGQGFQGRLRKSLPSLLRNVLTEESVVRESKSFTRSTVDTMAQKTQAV

Take “His6-tagged monkey C5a (His6-macC5a) (ligand)”: the chemotactic response of U937 cells stood at 0.8 nM.

As for “recombinant human C5a (from UniProt P01031 678-751) (ligand)”, the chemotaxis of U937 cells, maximal effective concentration was 1 nM.
